In US20140051589:

Columns and labels:
[1] = tested on: 1,557 peptides that contain no tyrosine residues (3,243-plex peptide construct set)
[2] = tested on: T1, peptide construct comprising the Abl substrate GEAIYAAPFA (SEQ ID NO:13) with C-terminal FLAG tag
T1 sequence: GEAIYAAPFADYKDDDDK

[3] = tested on: peptide construct with HCV polyprotein 8-mer VVCCSMSY (SEQ ID NO:10)
[4] = tested on: peptide construct with HCV polyprotein 8-mer MEECSQHL (SEQ ID NO:8)
[5] = tested on: peptide construct with HCV polyprotein 8-mer EVVTSTWV (SEQ ID NO:11)
[6] = tested on: peptide construct with HCV polyprotein 8-mer TTPCSGSW (SEQ ID NO:9)
[7] = tested on: peptide construct with HCV polyprotein 8-mer EAIYQCCD (SEQ ID NO:12)
[8] = tested on: T2, peptide construct comprising the enterokinase substrate AGDDDDKAG (SEQ ID NO:2)
T2 sequence: CAAGDDDDKAG

[9] = tested on: T3, peptide construct comprising the thrombin substrate GLVPRGSAG (SEQ ID NO:1)
T3 sequence: CAGLVPRGSAG

[10] = tested on: peptides containing thrombin cleavage sites (whole yeast peptide construct set from S. cerevisiae genomic DNA)
[11] = tested on: T4, peptide construct with Cortactin 10-mer GLAYATEAVY (SEQ ID NO:16)
T4 sequence: GLAYATEAVY

[12] = tested on: T5, peptide construct with Cortactin 10-mer VYSMEAADYR (SEQ ID NO:19)
T5 sequence: VYSMEAADYR

[13] = tested on: T6, peptide construct with Cortactin 10-mer GTEPEPVYSM (SEQ ID NO:18)
T6 sequence: GTEPEPVYSM

[14] = tested on: T7, peptide construct with Cortactin 10-mer QVSSAYQKTV (SEQ ID NO:20)
T7 sequence: QVSSAYQKTV

[15] = tested on: T8, peptide construct with Cortactin 10-mer GHYPAEDSTY (SEQ ID NO:17)
T8 sequence: GHYPAEDSTY

ABL1 tyrosine kinase was tested, and the “phosphorylation, capture on anti-phosphotyrosine beads and sequencing counts” value (“phosphorylation, capture” below) [1] was “None of the 1557 negative peptides were detected in the assays”, the “relative qPCR signal {2^[Ct(untreated)-Ct(test)]} after biotin labelling of phosphotyrosine and capture on streptavidin beads” value [2] was “The qPCR signal was ~2-fold higher for the kinase-treated preparation, relative to the untreated preparation” and the “relative qPCR signal {2^[Ct(untreated)-Ct(test)]} after capture on anti-phosphotyrosine antibody beads” value [2] was “The qPCR signal was significantly higher (~120-fold) for the kinase-treated preparation, relative to the untreated preparation”.
With “NS3 (hepacivirin) protease of hepatitis C virus” the “protease cleavage, release from beads and sequencing counts” value (“protease cleavage, release” below) (SEQ ID NO 22) was “map of peptide cleavage sites identified by assaying overlapping 8-mer peptides of HCV polyprotein (SEQ ID NOS:22, 23, 24, 25, 8, 26, 9, 27, 10, 28, 12, and 29”, the “protease cleavage, release” value (SEQ ID NO 29) was “map of peptide cleavage sites identified by assaying overlapping 8-mer peptides of HCV polyprotein (SEQ ID NOS:22, 23, 24, 25, 8, 26, 9, 27, 10, 28, 12, and 29” and the “protease cleavage, release” value [3] was “cleavage of 3 of the 4 known sites published in the MEROPS database was detected”. The “protease cleavage, release” value [4] was “cleavage of 3 of the 4 known sites published in the MEROPS database was detected”, the “protease cleavage, release” value [5] was “the undetected site, EVVTSTWV (SEQ ID NO:11), is known to be cleaved only in cis” and the “protease cleavage, release” value [6] was “cleavage of 3 of the 4 known sites published in the MEROPS database was detected”. The “protease cleavage, release” value (SEQ ID NO 23) was “map of peptide cleavage sites identified by assaying overlapping 8-mer peptides of HCV polyprotein (SEQ ID NOS:22, 23, 24, 25, 8, 26, 9, 27, 10, 28, 12, and 29”, the “protease cleavage, release” value (SEQ ID NO 24) was “map of peptide cleavage sites identified by assaying overlapping 8-mer peptides of HCV polyprotein (SEQ ID NOS:22, 23, 24, 25, 8, 26, 9, 27, 10, 28, 12, and 29” and the “protease cleavage, release” value (SEQ ID NO 27) was “map of peptide cleavage sites identified by assaying overlapping 8-mer peptides of HCV polyprotein (SEQ ID NOS:22, 23, 24, 25, 8, 26, 9, 27, 10, 28, 12, and 29”. For the same substance, the “protease cleavage, release” value (SEQ ID NO 26) was “map of peptide cleavage sites identified by assaying overlapping 8-mer peptides of HCV polyprotein (SEQ ID NOS:22, 23, 24, 25, 8, 26, 9, 27, 10, 28, 12, and 29”, the “protease cleavage, release” value (SEQ ID NO 28) was “map of peptide cleavage sites identified by assaying overlapping 8-mer peptides of HCV polyprotein (SEQ ID NOS:22, 23, 24, 25, 8, 26, 9, 27, 10, 28, 12, and 29” and the “protease cleavage, release” value (SEQ ID NO 25) was “map of peptide cleavage sites identified by assaying overlapping 8-mer peptides of HCV polyprotein (SEQ ID NOS:22, 23, 24, 25, 8, 26, 9, 27, 10, 28, 12, and 29”. The “protease cleavage, release” value [7] was “Peptide EAIYQCCD (SEQ ID NO:12) represents a peptide substrate that does not fit the known HCV NS3 protease consensus”.
With enterokinase the “protease cleavage, PAGE of reaction products” value (“protease cleavage, PAGE” below) [8] was “When treated with enterokinase, the peptide construct comprising the enterokinase substrate was cleaved” and the “protease cleavage, PAGE” value [9] was “neither the control nor the peptide construct comprising the thrombin substrate were cleaved”.
For thrombin, the “protease cleavage, sequence analysis of released constructs” value [10] was “Sequence analysis demonstrated a significant enrichment of peptides containing thrombin cleavage sites”, the “protease cleavage, PAGE” value [8] was “neither the control nor the peptide construct comprising the enterokinase substrate was cleaved” and the “protease cleavage, PAGE” value [9] was “then treated with thrombin, the peptide construct comprising the thrombin substrate was cleaved”.
For SRC tyrosine kinase, the “phosphorylation, capture” value [1] was “None of the 1557 negative peptides were detected in the assays”, the “phosphorylation, capture” value [11] was “Two of the three Src phosphorylation sites (GLAYATEAVY (SEQ ID NO: 16) and GHYPAEDSTY (SEQ ID NO: 17)) were detected” and the “phosphorylation, capture” value [12] was “Two more sites were identified (GTEPEPVYSM (SEQ ID NO: 18) and VYSMEAADYR (SEQ ID NO: 19))”. The “phosphorylation, capture” value [13] was “Two more sites were identified (GTEPEPVYSM (SEQ ID NO: 18) and VYSMEAADYR (SEQ ID NO: 19))”, the “phosphorylation, capture” value [14] was “the third known site that was not detected (QVSSAYQKTV (SEQ ID NO: 20))” and the “phosphorylation, capture” value [15] was “Two of the three Src phosphorylation sites (GLAYATEAVY (SEQ ID NO: 16) and GHYPAEDSTY (SEQ ID NO: 17)) were detected”.
